The target of assay [1] is T1, human activated protein C (human, UniProt P04070 43-197; P04070 212-461).
T1 construct: In the plasma assays aPC is generated in human plasma with Protac; also called aPC; haPC
As to the kind of experiment: Octet BLI. How it is done: (§1) Assay method: Octet analysis was carried out at 25° C. using a Protein A Octet biosensor in 1× Kinetics buffer. During the kinetics assay, the baseline step assay was run in 1× Kinetics buffer for 120 seconds, and then run for 240 seconds after the antibody was loaded to the biosensor. Next, the baseline 2 step assay was run in 1× Kinetics buffer for 120 seconds. […] The 1× Kinetics buffer was used as a blank control to show the natural dissociation of the antibody in the buffer. 10 mM glycine at pH 1.5 was used for the regeneration step. Octet data analysis software was used to calculate binding kinetics, and a 1:1 binding model was used for curve fitting.

Assay [2] has as its target T1, human activated protein C. Briefly: Octet BLI, antibody on Protein A sensor, huAPC 3.13-50 nM, 1:1 model, 25 C, pH 7.4. How it is done:
as §1
The affinities of the mutant antibodies were assayed at pH 7.4.
(BLI is a label-free optical method that tracks binding on a fibre tip over time.)

The target of assay [3] is T2, human protein C (human, UniProt P04070 43-461).
T2 construct: Zymogen form, coated on ELISA plates; also called hPC; PC
As to the kind of experiment: ELISA, plate coated with hPC 1 ug/mL, anti-hIgG-Fc-HRP. How it is done:
(§2) The binding abilities of the anti-aPC monoclonal antibodies to haPC/hPC were assayed by Elisa. […] 1. ELISA plates were coated with haPC/hPC (1 ug/mL in PBS), 100 μL/well, at 4° C. overnight. […] 2. The plates were washed 3 times with PBST (0.1% Tween 20), 200 μL/well. […] 3. The plates were blocked with 2% BSA (PBS solution), 200 μL/well, at room temperature for 1 hour. […] 4. The plates were washed 3 times with PBST (0.1% Tween 20), 200 μL/well. […] 5. The plates were incubated with anti-aPC monoclonal antibody as primary antibody (diluted from 10 μg/mL in 2% BSA), 100 μL/well, at room temperature for 1 hour. […] 6. The plates were washed 3 times with PBST (0.1% Tween 20), 200 μL/well. [0200] 7. The plates were incubated with anti-hIgG-Fc antibody-HRP (diluted 5000-fold in 2% BSA buffer) at room temperature for 1 hour. [0201] 8. The plates were washed 6 times with PBST (0.1% Tween 20), 200 μL/well. [0202] 9. The plates were incubated with a TMB substrate (prepared from solutions A and B at 1:1 (v/v)), 100 μL/well, away from light for 10 minutes. […] 10. The reaction was quenched with HCl (1 M), 100 μL/well, and OD450 was read.
In general terms: An ELISA detects its analyte on a solid surface through an enzyme-linked reagent.

Assay [4] has as its target T1, human activated protein C. As to the kind of experiment: cell-based or functional assay.
The target of assay [5] is T2, human protein C. As to the kind of experiment: ELISA on plate-coated HPC, OD450. How it is done:
as §2

Assay [6] addresses T1, human activated protein C. As to the kind of experiment: ELISA, plate coated with haPC 1 ug/mL, anti-hIgG-Fc-HRP. How it is done:
as §2

Assay [7] concerns the target T1, human activated protein C. Briefly: ELISA on plate-coated APC (1 ug/ml), OD 450; EC50 from the table drawn beside the curves; no unit in the table, axis Ab Conc.(nM).
In assay [8] the target is T2, human protein C. As to the kind of experiment: ELISA on plate-coated HuPC (1 ug/ml), OD450.
Assay [9] addresses human activated protein C (human) (UniProt P04070). As to the kind of experiment: cell-based or functional assay.

From patent US20250277057A1 (OKLAHOMA MEDICAL RESEARCH FOUNDATION, published 2025) come the findings set out here.

B1: HAPC-14-6 (antibody, V domains shown)
VH: EVQLVESGGGLVQPGGSLRLSCAASGFTFSFYYLNWVRQAPGKGLEWVGDIRLKKNNYEKHYAESVKGRFTISRDDSKSITYLQMNSLRAEDTAVYYCAREGDYFDYWGQGTTVTVSS
VL: DIQLTQSPSSLSASVGDRVTITCRASESVDSFGATFMHWYQQKPGKAPKLLIYLASRLGSGVPSRFSGSGSGTDFTLTISSLQPEDFATYYCQQNNEDPYTFGQGTKLEIK
notes: Whole IgG, backbone hIgG1; also called HPAC 14-6; No. 6
Take B1: the “fold increase of affinity against the unmutated No. 14 antibody HAPC-14” value in assay [1] was about 100 fold. Further, in assay [2], binding was characterised by a dissociation constant (Kd) of 3.64 nM; the off-rate constant (koff) (in general, the first-order rate constant of dissociation) turned out to be 0.00108 s⁻¹; the association rate constant (kon) (in general, the rate constant with which the complex forms) is 297000 M⁻¹ s⁻¹. The Span in assay [3] was about 0.0133. For the same molecule, in assay [4], the “Mean clotting time (s), FIX-deficient plasma, APC-antibody concentration 0.5 ug/ml” value stood at 181 s; the “Mean clotting time (s), FIX-deficient plasma, APC-antibody concentration 1 ug/ml” value amounted to 198 s; the “Mean clotting time (s), FIX-deficient plasma, APC-antibody concentration 5 ug/ml” value worked out at 180 s; the “Mean clotting time (s), FVIII-deficient plasma, APC-antibody concentration 0.5 ug/ml” value amounted to 182 s. In assay [4], the “Mean clotting time (s), FVIII-deficient plasma, APC-antibody concentration 1 ug/ml” value worked out at 187 s and the “Mean clotting time (s), FVIII-deficient plasma, APC-antibody concentration 5 ug/ml” value amounted to 162 s. Besides, the binding result in assay [5] is given as “no binding (tested: 10^2 nM)”. In addition, in [6], the EC50 – broadly, the concentration giving half of the maximal effect – is 0.0821 nM and the Span was found to be 1.85.

B2: Humanized antibody 14 (HAPC-14) (antibody, V domains shown)
VH: EVQLVESGGGLVQPGGSLRLSCAASGFTFSNYYLNWVRQAPGKGLEWVGDIRLKSNNYEKHYAESVKGRFTISRDDSKSITYLQMNSLRAEDTAVYYCAREGDYFDYWGQGTTVTVSS
VL: DIQLTQSPSSLSASVGDRVTITCRASESVDSFGATFMHWYQQKPGKAPKLLIYLASNLESGVPSRFSGSGSGTDFTLTISSLQPEDFATYYCQQNNEDPYTFGQGTKLEIK
notes: also called Humab001-14; NO; 14 antibody
B2: the response in assay [7] was half-maximal at 0.249 nM (EC50). For the same molecule, in [2], the affinity, expressed as Kd, was 254 nM; the off-rate constant (koff) turned out to be 0.0162 s⁻¹; the kon was determined as 64000 M⁻¹ s⁻¹. The molecule further showed a Span in assay [3] of about 0.0387. For the same molecule, in [4], the “Mean clotting time (s), FIX-deficient plasma, APC-antibody concentration 0.5 ug/ml” value stood at 457 s; the “Mean clotting time (s), FIX-deficient plasma, APC-antibody concentration 1 ug/ml” value is 415 s; the “Mean clotting time (s), FIX-deficient plasma, APC-antibody concentration 5 ug/ml” value is 310 s; the “Mean clotting time (s), FVIII-deficient plasma, APC-antibody concentration 0.5 ug/ml” value was found to be 574 s. Further, in assay [4], the “Mean clotting time (s), FVIII-deficient plasma, APC-antibody concentration 1 ug/ml” value worked out at 457 s and the “Mean clotting time (s), FVIII-deficient plasma, APC-antibody concentration 5 ug/ml” value was 324 s. In addition, the binding result in assay [5] is reported as “no binding (tested: 10^2 nM)”. In assay [6], this molecule returned an EC50 of 0.22 nM and a Span of 0.291.

B3: Humanized antibody 13 (HAPC-13) (antibody, V domains shown)
VH: EVQLVESGGGLVQPGGSLRLSCAASGFTFSNYYLNWVRQAPGKGLEWVGDIRLKSNNYEKHYAESVKGRFTISRDDSKSITYLQMNSLRAEDTAVYYCAREGDYFDYWGQGTTVTVSS
VL: DIQMTQSPSSLSASVGDRVTITCRASESVDSFGATFMHWYQQKPGKAPKLLIYLASNLESGVPSRFSGSGSGTDFTLTISSLQPEDFATYYCQQNNEDPYTFGQGTKLEIK
notes: also called Humab001-13; NO; 13 antibody
As for B3, the response in assay [7] was half-maximal at 0.199 nM (EC50). In assay [4], the “Mean clotting time (s), FIX-deficient plasma, APC-antibody concentration 0.5 ug/ml” value is 502 s; the “Mean clotting time (s), FIX-deficient plasma, APC-antibody concentration 1 ug/ml” value stood at 402 s; the “Mean clotting time (s), FIX-deficient plasma, APC-antibody concentration 5 ug/ml” value was 326 s; the “Mean clotting time (s), FVIII-deficient plasma, APC-antibody concentration 0.5 ug/ml” value stood at 629 s. Further, in [4], the “Mean clotting time (s), FVIII-deficient plasma, APC-antibody concentration 1 ug/ml” value was 546 s and the “Mean clotting time (s), FVIII-deficient plasma, APC-antibody concentration 5 ug/ml” value was 301 s. Also, the binding result in assay [8] is recorded as “no binding (tested: 100 nM)”.

B4: Humanized antibody 16 (HAPC-16) (antibody, V domains shown)
VH: EVQLVESGGGLVQPGGSLRLSCAASGFTFSNYYLNWVRQAPGKGLEWVGDIRLKSNNYEKHYAESVKGRFTISRDDSKSITYLQMNSLRAEDTAVYYCAREGDYFDYWGQGTTVTVSS
VL: NIVLTQSPSSLSASVGDRVTITCRASESVDSFGATFMHWYQQKPGKPPKLLIYLASNLESGVPSRFSGSGSRTDFTLTISSLQPEDFATYYCQQNNEDPYTFGQGTKLEIK
notes: also called Humab001-16; NO; 16 antibody
B4 yielded a 50% effective concentration (EC50) in [7] of 0.172 nM. The binding result in [8] is listed as “no binding (tested: 100 nM)”.

B5: HAPC-14-3 (antibody, V domains shown)
VH: EVQLVESGGGLVQPGGSLRLSCAASGFTFSFYYLNWVRQAPGKGLEWVGDIRLKKNNYEKHYAESVKGRFTISRDDSKSITYLQMNSLRAEDTAVYYCAREGDYFDYWGQGTTVTVSS
VL: DIQLTQSPSSLSASVGDRVTITCRASESVDSFGATFMHWYQQKPGKAPKLLIYLASRLGSGVPSRFSGSGSGTDFTLTISSLQPEDFATYYCVQNNEDPYTFGQGTKLEIK
notes: Whole IgG, backbone hIgG1; also called HPAC 14-3; No. 3
For the molecule B5, the “fold increase of affinity against the unmutated No. 14 antibody HAPC-14” value in assay [1] was about 100 fold. Further, in assay [2], binding was put at a Kd of 2.67 nM, the koff amounted to 0.000854 s⁻¹ and the kon was 320000 M⁻¹ s⁻¹. In assay [3], the Span is about 0.267. In assay [4], the “Mean clotting time (s), FIX-deficient plasma, APC-antibody concentration 0.5 ug/ml” value was found to be 208 s; the “Mean clotting time (s), FIX-deficient plasma, APC-antibody concentration 1 ug/ml” value is 200 s; the “Mean clotting time (s), FIX-deficient plasma, APC-antibody concentration 5 ug/ml” value was determined as 185 s; the “Mean clotting time (s), FVIII-deficient plasma, APC-antibody concentration 0.5 ug/ml” value is 205 s. For the same molecule, in assay [4], the “Mean clotting time (s), FVIII-deficient plasma, APC-antibody concentration 1 ug/ml” value was 188 s and the “Mean clotting time (s), FVIII-deficient plasma, APC-antibody concentration 5 ug/ml” value came to 176 s. Moreover, in assay [5], the binding result is given as “no binding (tested: 10^2 nM)”. In [6], this molecule had an EC50 of 0.0618 nM and a Span of 1.61.

B6: HAPC1573 (antibody, from another filing, V domains shown)
VH: EVKLEESGGGLVQPGGSMKLSCVASGFTFSNYYLNWVRQSPEKGLEWVADIRLKSNNYEKHYAESVKGRFTISRDDSKSSVYLQMNNLRAEDTGIYYCIREGDYFDYWGQGTTLTVSS
VL: NIVLTQSPASLAVSLGQRATISCRASESVDSFGATFMHWYQQKPGQPPKLLIYLASNLESGVPARFSGSGSRTDFTLTIDPVEADDAATYYCQQNNEDPYTFGGGTKLEIKR
Regarding B6, in [9], the Mean clotting time (s), FIX-deficient plasma, APC-antibody concentration 0.5 ug/ml was 584 s; the Mean clotting time (s), FIX-deficient plasma, APC-antibody concentration 1 ug/ml came out at 567 s; the Mean clotting time (s), FIX-deficient plasma, APC-antibody concentration 5 ug/ml was 404 s; the Mean clotting time (s), FVIII-deficient plasma, APC-antibody concentration 0.5 ug/ml was 600 s. In [9], this molecule had a Mean clotting time (s), FVIII-deficient plasma, APC-antibody concentration 1 ug/ml of 629 s; a Mean clotting time (s), FVIII-deficient plasma, APC-antibody concentration 5 ug/ml of 389 s; an antibody concentration needed to inhibit the anticoagulant activity of aPC, Protac-induced APTT in factor-deficient human plasma of over 100 µg/mL.
